Measured values as given in the nanobody polyreactivity screen of Harvey et al. (2022).

experiment: yeast display, Sf9 membrane polyspecificity reagent, FACS + sequencing; frameworks hold sequencing errors
Method in brief: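 Nanobodies came from a synthetic yeast display library in Saccharomyces cerevisiae BJ5465, induced with galactose for 36–48 hours and stained for 1 hour at 4 °C with 10% biotinylated, detergent-solubilized Sf9 membrane reagent. Cells were enriched on streptavidin microbeads and then FACS-sorted, with low and high (top ~1%) gates set on anti-HA fluorescence for expression and streptavidin fluorescence for reagent binding. Each polyreactivity label reflects the gate a clone came from. Genes were amplified by colony PCR, sequenced by MiSeq 2 × 250 and filtered by CDR length.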

| Sequence | polyreactivity (PSR sort gate) |
| --- | --- |
| QVQLVESGGGLVQAGGSLRLSCAASGGIFGGYAMGWYRPAPGKEGELVAVITSGGSTYYADSVKGRFTISRDNAKNTVYLQMNSLKPEDTAVYYCAALGQYQTVYSDGYDYYYWGQGTKVTVSS | low polyreactivity |
| QVQLVESGGGLVQAGGSLRLSCAASGGIFGGYAMGWYRQAPGKEGELVPVITSGGSTYYADSVKARFTISRDNAKNTVYLQMNSLKPEDTAVYYCAADGHSYSYSTYDYWGQGTQVTVSS | low polyreactivity |
| QVQLVESGGGLVQAGGSLRLSCAASGGIFGHNAMGWYRQAPGKERELVAAISYTGGSTYYADSVKGRFTISRDNAKNTVNLQMNSLKPEDTAVYYCNAVQRRFRYPFDYWGQGTQVTVSS | low polyreactivity |
| QVQLVESGGGLVQAGGSLRLSCAASGGIFGIYAMGSYRQAPGKERELVAAINGGTSTYYADSVKGRFTISRDNAKNTVYLQMNSLKPEDTAVYYCAADWRYLYYALDYWGQGTQVTVSS | low polyreactivity |
| QVQLVESGGGLVQAGGSLRLSCAASGGIFGRYAMGWYIQAPGKERELFAAISKRGGSTYYADSVKGRFTISRDNAKNTVYLQMNSLKPEDTAVYYCNAYRLSYTTFGKADGDYWGQGTQVTVSS | high polyreactivity |
| QVQLVESGGGLVQAGGSLRLSCAASGGIFGWYTMGWYRQAPGKERELVAAINFSGSRTYYADSVKGRFTISRDNAKNTVYLQMNSLKPEDTAVYYCNAVYHQFREEYWGQGTQVTVSS | high polyreactivity |
| QVQLVESGGGLVQAGGSLRLSCAASGGIFGYYAMGWYRPAPGKERELVAAINYSGGSTYYADSVKGRFTISRDNAKNTVYLQMNSLKPEDTAVYYCNAVVRDYTFRYYYWGQGTQVTVSS | low polyreactivity |
| QVQLVESGGGLVQAGGSLRLSCAASGGIFHHYAMGWSRPAPGKERELVAGISWRGTSTYYADSVKGRFTISRDNAKNTVYLQMNSLKPEDTAVYYCARVYPYSVGYNSGHPASYDYWGQGTQVTVSS | high polyreactivity |
| QVQLVESGGGLVQAGGSLRLSCAASGGIFHSNAMGWYRQAPGKERELVAAISYSGGSTYYADSVKGRFTISRDNAKNTVYLQMNSLKPEDTAVYYCAKRYYGSPQLRYYYWGQGTQVTVSS | high polyreactivity |
| QVQLVESGGGLVQAGGSLRLSCAASGGIFIGYAMGWYRQAPGKERELVARIRSSGGTTYYADSVKGRFTISRDNAKNTVYLQMNSLKPEDTAVYYCAKRTSSSWAYGPYYYWGQGTQVTVSS | high polyreactivity |
| QVQLVESGGGLVQAGGSLRLSCAASGGIFIYNAMGWYRQAPGKEREFVAAINISGGNTYYADSVKGRFTISRDNAKNTVYLQMNSLKPEDTAVYYCAKSGRYGFWGQGTQVTVSS | high polyreactivity |
| QVQLVESGGGLVQAGGSLRLSCAASGGIFKRYAMGWYRQEPGKERELVAAISGRGGGTYYADSVKGRFTISRDNAKNTDYLQMNSLKPEDTAVYYCNARLSWSAFGYWGQGTQVTVSS | high polyreactivity |
| QVQLVESGGGLVQAGGSLRLSCAASGGIFKYYAMGWYRLAPGKERELVAAITSGGNTNYADSVKGRFTISRDNAKNTVYLQMNSLKPEDTAVYYCAARSISRRTWQYNYWGQGTQVTVSS | high polyreactivity |
| QVQLVESGGGLVQAGGSLRLSCAASGGIFLFNAMGWYRQAPGKERELVAAITDGGSTYYADSVKGRFTISRDNAKNTVYLQMNSLIPDDTAVYYCNKDSSFWGYYIAQVNERDYWGQGTQVTVSS | low polyreactivity |
| QVQLVESGGGLVQAGGSLRLSCAASGGIFLSNAMGWYRQAPGKERELVAAISRSGGSTYYADSVKGRFTISRDNAKNTVYLQMNSLKPEDTAVYYCAARWTRNYGMNYWGQGTQVTVSS | high polyreactivity |
| QVQLVESGGGLVQAGGSLRLSCAASGGIFNYYAMGWYRQAPGKERELVAAMTSAGSTYADSVKGRFTISRDNATNTVSLQMNILKPEDTAVYYCNAVGVVVKFGYYLIGYAKWYDYWGQGSQVTVSS | low polyreactivity |
| QVQLVESGGGLVQAGGSLRLSCAASGGIFNYYVMGWYRQAPGIERELVAAISNGGSPNYADSVKGRFTISRDNAKNPVYLQMNSLKPEDTAVYYCAAHTYSELSWLVVYPYDYWGQGTQVTVSS | low polyreactivity |
